Measurements from PMC4717663 (2014).

Target: pro-TGF-β1 (Homo sapiens, UniProt P01137)
Sequence (P01137 30-278, chain 1 of 2): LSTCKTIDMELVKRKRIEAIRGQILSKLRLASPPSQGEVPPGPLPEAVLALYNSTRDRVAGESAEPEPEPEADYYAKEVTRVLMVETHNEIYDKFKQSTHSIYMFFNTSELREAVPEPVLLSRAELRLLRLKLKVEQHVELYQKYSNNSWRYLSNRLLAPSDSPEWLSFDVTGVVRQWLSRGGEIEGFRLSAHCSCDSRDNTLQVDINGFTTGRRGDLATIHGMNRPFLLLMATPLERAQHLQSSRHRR
Sequence (P01137 279-390, chain 2 of 2): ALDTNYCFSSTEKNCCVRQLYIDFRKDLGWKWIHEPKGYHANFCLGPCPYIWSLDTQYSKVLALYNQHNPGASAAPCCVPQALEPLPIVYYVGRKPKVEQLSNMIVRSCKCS

Kd: ~10 nM
B1: integrin αVβ6 (protein)
chain 1: FNLDVDSPAEYSGPEGSYFGFAVDFFVPSASSRMFLLVGAPKANTTQPGIVEGGQVLKCDWSSTRRCQPIEFDATGNRDYAKDDPLEFKSHQWFGASVRSKQDKILACAPLYHWRTEMKQEREPVGTCFLQDGTKTVEYAPCRSQDIDADGQGFCQGGFSIDFTKADRVLLGGPGSFYWQGQLISDQVAEIVSKYDPNVYSIKYNNQLATRTAQAIFDDSYLGYSVAVGDFNGDGIDDFVSGVPRAARTLGMVYIYDGKNMSSLYNFTGEQMAAYFGFSVAATDINGDDYADVFIGAPLFMDRGSDGKLQEVGQVSVSLQRASGDFQTTKLNGFEVFARFGSAIAPLGDLDQDGFNDIAIAAPYGGEDKKGIVYIFNGRSTGLNAVPSQILEGQWAARSMPPSFGYSMKGATDIDKNGYPDLIVGAFGVDRAILYRARPVITVNAGLEVYPSILNQDNKTCSLPGTALKVSCFNVRFCLKADGKGVLPRKLNFQVELLLDKLKQKGAIRRALFLYSRSPSHSKNMTISRGGLMQCEELIAYLRDESEFRDKLTPITIFMEYRLDYRTAADTTGLQPILNQFTPANISRQAHILLDCGEDNVCKPKLEVSVDSDQKKIYIGDDNPLTLIVKAQNQGEGAYEAELIVSIPLQADFIGVVRNNEALARLSCAFKTENQTRQVVCDLGNPMKAGTQLLAGLRFSVHQQSEMDTSVKFDLQIQSSNLFDKVSPVVSHKVDLAVLAAVEIRGVSSPDHVFLPIPNWEHKENPETEEDVGPVVQHIYELRNNGPSSFSKAMLHLQWPYKYNNNTLLYILHYDIDGPMNCTSDMEINPLRIKISSLQTTEKNDTVAGQGERDHLITKRDLALSEGDIHTLGCGVAQCLKIVCQVGRLDRGKSAILYVKSLLWTETFMNKENQNHSYSLKSSASFNVIEFPYKNLPIEDITNSTLVTTNVTWGIQPAPMPV
chain 2: GCALGGAETCEDCLLIGPQCAWCAQENFTHPSGVGERCDTPANLLAKGCQLNFIENPVSQVEILKNKPLSVGRQKNSSDIVQIAPQSLILKLRPGGAQTLQVHVRQTEDYPVDLYYLMDLSASMDDDLNTIKELGSRLSKEMSKLTSNFRLGFGSFVEKPVSPFVKTTPEEIANPCSSIPYFCLPTFGFKHILPLTNDAERFNEIVKNQKISANIDTPEGGFDAIMQAAVCKEKIGWRNDSLHLLVFVSDADSHFGMDSKLAGIVIPNDGLCHLDSKNEYSMSTVLEYPTIGQLIDKLVQNNVLLIFAVTQEQVHLYENYAKLIPGATVGLLQKDSGNILQLIISAYEELRSEVELEVLGDTEGLNLSFTAICNNGTLFQHQKKCSHMKVGDTASFSVTVNIPHCERRSRHIIIKPVGLGDALELLVSPECNCDCQKEVEVNSSKCHHGNGSFQCGVCACHPGHMGPRCECGEDMLSTDSCKEAPDHPSCSGRGDCYCGQCICHLSPYGNIYGPYCQCDNFSCVRHKGLLCGGNGDCDCGECVCRSGWTGEYCNCTTSTDSCVSEDGVLCSGRGDCVCGKCVCTNPGASGPTCERCPTCGDPCNSKRSCIECHLSAAGQAREECVDKCKLAGATISEEEDFSKDGSVSCSLQGENECLITFLITTDNEGKTIIHSINEKDCPKPPNIP
